Common to all, as to assay: IEDB peptide-MHC binding, purified MHC/competitive/radioactivity; ≥ and ≤ were set here for values at or beyond the usual limits of such assays
Conditions in all cases: source organism: hepatitis C virus genotype 1a

The target in experiment [1] is HLA-B*07:02.
Experiment [2] deals with HLA-A*02:01.
Experiment [3] addresses HLA-B*08:01.
In experiment [4] the target is HLA-B*40:01.
For experiment [5], the target named is HLA-B*40:02.

Regarding RPALVFDIT, the IC50 (commonly the concentration needed to halve the response being measured) in experiment [1] was 43 nM.
Consider IPFYGKAI, for which the IC50 in experiment [1] turned out to be 497 nM.
As to SLLAPGAKQNV, the IC50 in experiment [2] was determined as 513 nM.
Regarding FLVGQLFTF, the IC50 in experiment [2] turned out to be 67 nM.
HPALVFDIT: the IC50 in experiment [1] was 160 nM.
On to RLWHYPCTV, for which the IC50 in experiment [2] turned out to be 12 nM.
In the case of HSKKKCDEL, the IC50 in experiment [3] is 764 nM.
Regarding GVDPNIRTGV, the concentration for half-maximal inhibition (IC50) in experiment [2] turned out to be 351 nM.
Consider LEDRDRSEL, for which the figures for the IC50 in experiment [4] and in experiment [5] were 426 nM and 4270 nM, respectively.
For VLSDFKTWL, in experiment [2], the IC50 was found to be 305 nM.

The values are drawn from the Immune Epitope Database (IEDB).
